Data reported in PMC9592557, “Structures of SAS-6 coiled coil hold implications for the polarity of the centriolar cartwheel” (Structure(London, England:1993), 2022).
Substitutions are numbered along the chain they refer to. In names and notes the source's numbering stands. Blank lines part the entries; values can stand above or below the molecule they belong to.

Assays:
[1] = target: DrSAS-6_CC_(Middle) (Danio rerio) (UniProt Q7ZVT3); assay: SEC-MALS; step: monomers to the coiled-coil dimer; Superdex 75 or 200 10/300 GL, 10 mM K-PIPES pH 7.2
[2] = target: HsSAS-6_CC_(Middle) (human) (UniProt Q6UVJ0); assay: as above
[3] = target: the molecule itself; assay: cryo-EM cartwheel reconstitution (ring stacking) assay; purified protein dialysed overnight at 4°C into 10 mM K-PIPES pH 7.2 (no salt), vitrified, isolated cartwheels analysed
[4] = target: CrSAS-6_CC_(Middle) (C. reinhardtii) (UniProt A9CQL4); assay: ITC; dilution ITC, step: higher-order complex to coiled-coil dimers; 1.82 mM monomer in the syringe injected into buffer alone, 20°C, 10 mM K-PIPES pH 7.2, dissociation model
ITC = target: the molecule itself; assay: ITC
[5] = target: CrSAS-6_CC_(Middle) (C. reinhardtii) (UniProt A9CQL4); assay: SEC-MALS; step: monomers to the coiled-coil dimer; Superdex 75 or 200 10/300 GL, 10 mM K-PIPES pH 7.2

stoichiometry N [1]: 2
Molecule: DrSAS-6_CC_(Middle) (from UniProt Q7ZVT3 243-358) (domain or fragment)

stoichiometry N [2]: 2
Molecule: HsSAS-6_CC_(Middle) (from UniProt Q6UVJ0 211-312) (domain or fragment)

B1: CrSAS-6NL (domain or fragment, C. reinhardtii, UniProt A9CQL4 1-503, looked up)
chain: MPLLLDDGDPKAQTGFDLSTATTLFWRPVPVHVKQQDREDVLEELTFRILTGVAKQNHNLRILRIHISSDSDLFFLHTLEVSEEDFQSLKNDQGILVDFASFPGKIISLLEKCILAQPGDSPRFQAVLTIRGGESVFKIVEINDFKQLPHITLAFRPGNDSVVKQFLAFRLSEVKGTCHDLSDDLSRTRDDRDSMVAQLAQCRQQLAQLREQYDKHLLEVQAQAKTQQASAHEERIREKSQLKDQFEKERGEMEGRYRDQIAALNTRLGELDTENRKLREVKYELDTKVSELSHKLGSSEGSNRSLEEETARLRSLNQQLSSSKHELEIQLNEAKAKVLALDEKAQSQGDVIEQQRGRLRDMEAALRQTEQRCADLRDTLASAEGRAKEAQAEVLKGNQAIEKLTNDLRLAKEKTKRKAAIILRQEEELQEREQSLANATRDVGVLGQQAESLRKDVASLHSENDSLRSKLEDSKQQLQSNEQMIRWLNQQVTEAQLHASGAT
notes: C. reinhardtii SAS-6, residues 1-503: head domain and full-length coiled-coil domain, without the disordered C-terminal tail; also called WT CrSAS-6NL; C. reinhardtii SAS-6 (1-503); source: E. coli BL21(DE3), purified (HiTrap Talon, 3C cleavage, SEC); not shown: His6, N-terminal, cleaved
binding result [3]: binds

B2: CrSAS-6LD (domain or fragment, C. reinhardtii, UniProt A9CQL4 1-503, looked up)
chain: B1 chain with L339E, D378N
notes: C. reinhardtii SAS-6, residues 1-503, mutant aimed at the symmetric coiled-coil complex; also called C. reinhardtii SAS-6 (1-503; L339E/D378N); source: E. coli BL21(DE3), purified (HiTrap Talon, 3C cleavage, SEC); not shown: His6, N-terminal, cleaved
binding result [3]: binds

B3: CrSAS-6LE (domain or fragment, C. reinhardtii, UniProt A9CQL4 1-503, looked up)
chain: B1 chain with L306A, E326A
notes: C. reinhardtii SAS-6, residues 1-503, control mutant; also called C. reinhardtii SAS-6 (1-503; L306A/E326A); source: E. coli BL21(DE3), purified (HiTrap Talon, 3C cleavage, SEC); not shown: His6, N-terminal, cleaved
binding result [3]: binds

B4: CrSAS-6LQ (domain or fragment, C. reinhardtii, UniProt A9CQL4 1-503, looked up)
chain: B1 chain with L320A, Q330A
notes: C. reinhardtii SAS-6, residues 1-503, control mutant; also called C. reinhardtii SAS-6 (1-503; L320A/Q330A); source: E. coli BL21(DE3), purified (HiTrap Talon, 3C cleavage, SEC); not shown: His6, N-terminal, cleaved
binding result [3]: binds

B5: CrSAS-6VD (domain or fragment, C. reinhardtii, UniProt A9CQL4 1-503, looked up)
chain: B1 chain with V351E, D361N
notes: C. reinhardtii SAS-6, residues 1-503, mutant aimed at the asymmetric coiled-coil complex; also called C. reinhardtii SAS-6 (1-503 V351E/D361N); source: E. coli BL21(DE3), purified (HiTrap Talon, 3C cleavage, SEC); not shown: His6, N-terminal, cleaved
binding result [3]: binds

dH [4]: 1 kcal/mol
stoichiometry N [5]: 2
B6: CrSAS-6_CC_(Middle) (domain or fragment)
chain: KLREVKYELDTKVSELSHKLGSSEGSNRSLEEETARLRSLNQQLSSSKHELEIQLNEAKAKVLALDEKAQSQGDVIEQQRGRLRDMEAALRQTEQRCADLRDTLASAEGRAKEA
Kd (ITC): 2300 µM
